Assay results from PMC9352680, “A comprehensive thermodynamic model for RNA binding by the Saccharomyces cerevisiae Pumilio protein PUF4”.
Numbering of substitutions follows the chain as printed. In names and notes the source's numbering stands.

T1: PUF4 RNA-binding domain (Saccharomyces cerevisiae, UniProt P25339 537-888)
T1 sequence: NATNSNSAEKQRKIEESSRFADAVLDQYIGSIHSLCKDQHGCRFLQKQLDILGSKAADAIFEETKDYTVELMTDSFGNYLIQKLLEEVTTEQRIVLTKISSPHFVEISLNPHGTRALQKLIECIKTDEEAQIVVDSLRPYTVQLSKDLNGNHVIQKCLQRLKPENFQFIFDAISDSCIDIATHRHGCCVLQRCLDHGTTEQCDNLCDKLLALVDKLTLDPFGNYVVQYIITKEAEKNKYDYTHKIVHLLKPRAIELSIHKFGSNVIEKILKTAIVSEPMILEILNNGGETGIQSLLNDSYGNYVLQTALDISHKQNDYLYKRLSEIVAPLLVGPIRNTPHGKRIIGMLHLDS

B1: Ie_S4_P4E.1_K4.1_C4.1_H4.1_[+1CTC]_A4.1_F4.1_T4.1 (ssRNA)
RNA: UUUGACAACUGAUCGUUCUUUCUUCUCGUAUAUUAUUCUUUCUCGAUCAGUUGUCUUU
B2: Ie_S4_P5E.1_K5.1_C5.1_H5.1_A5.1_[+6CT]_F5.1_T5.1 (ssRNA)
RNA: B1 RNA with C25G, C27A, G28U, A30C
B3: Ie_S4_P4E.1_K4.1_C4.1_H4.1_[+3TTT]_A4.1_F4.1_T4.1 (ssRNA)
RNA: B1 RNA with C25G, C27U, G28U
B4: Ie_S4_P4E.1_K4.1_C4.1_H4.1_[+2TCC]_A4.1_F4.1_T4.1 (ssRNA)
RNA: B1 RNA with C25G, G28C
B5: Ie_S4_P4E.1_K4.1_C4.1_H4.1_[+3TCT]_A4.1_F4.1_T4.1 (ssRNA)
RNA: B1 RNA with C25G, C27U, G28C
B6: Ie_S4_P4E.1_K4.1_C4.1_H4.1_A4.1_[+5TTT]_F4.1_T4.1 (ssRNA)
RNA: B1 RNA with C25G, C27A, G28U, A30U
B7: Ie_S4_P4E.1_K4.1_C4.1_H4.1_[+3CCC]_A4.1_F4.1_T4.1 (ssRNA)
RNA: B1 RNA with C25G, G28C, U29C
B8: Ie_S4_P4E.1_K4.1_C4.1_H4.1_[+1TCC]_A4.1_F4.1_T4.1 (ssRNA)
RNA: B1 RNA with C25U, U26C
B9: Ie_S4_P4E.1_K4.1_C4.1_H4.1_[+1TTT]_A4.1_F4.1_T4.1 (ssRNA)
RNA: B1 RNA with C25U, C27U
B10: Ie_S4_P4E.1_K4.1_C4.1_H4.1_[+4CTC]_A4.1_F4.1_T4.1 (ssRNA)
RNA: B1 RNA with C25G, C27A, G28C, A30C
B11: Ie_S4_P4E.1_K4.1_C4.1_H4.1_[+3TCC]_A4.1_F4.1_T4.1 (ssRNA)
RNA: B1 RNA with C25G, C27U, G28C, U29C
B12: Ie_S4_P4E.1_K4.1_C4.1_H4.1_[+2CTC]_A4.1_F4.1_T4.1 (ssRNA)
RNA: B1 RNA with C25G, U26C, C27U, G28C
B13: Ie_S4_P5E.1_K5.1_C5.1_H5.1_A5.1_[+5CC]_F5.1_T5.1 (ssRNA)
RNA: B1 RNA with C25G, C27A, G28U, U29C, A30C
B14: Ie_S4_P3E.2_K3.1_C3.2_H3.1_[+3TTCC]_A3.1_F3.1_T3.2 (ssRNA)
RNA: UUUGACAACUGAUCGUUCUUUCUCUUGUUUCCAUAUAUAUUCUUUCUCGAUCAGUUGUCUUU
B15: Ie_S4_P3E.2_K3.1_C3.2_H3.1_[+3CCCT]_A3.1_F3.1_T3.2 (ssRNA)
RNA: B14 RNA with U29C, U30C, C32U
B16: Ie_S4_P3E.2_K3.1_C3.2_H3.1_A3.1_[+6TC]_F3.1_T3.2 (ssRNA)
RNA: UUUGACAACUGAUCGUUCUUUCUCUUGUAUAUCUAUAUUCUUUCUCGAUCAGUUGUCUUU
B17: Ie_S4_P3E.2_K3.1_C3.2_H3.1_A3.1_F3.1_[+8CC]_T3.2 (ssRNA)
RNA: B16 RNA with C33A, U34C, A35C
B18: Ie_S4_P4E.1_K4.1_C4.1_H4.1_[+1CT]_A4.1_F4.1_T4.1 (ssRNA)
RNA: UUUGACAACUGAUCGUUCUUUCUUCUGUAUAUUAUUCUUUCUCGAUCAGUUGUCUUU
B19: Ie_S4_P4E.1_K4.1_C4.1_H4.1_[+3CT]_A4.1_F4.1_T4.1 (ssRNA)
RNA: B18 RNA with C25G, G27C
B20: Ie_S4_P4E.1_K4.1_C4.1_H4.1_[+2TT]_A4.1_F4.1_T4.1 (ssRNA)
RNA: B18 RNA with C25G, G27U
B21: Ie_S4_P4E.1_K4.1_C4.1_H4.1_[+4CT]_A4.1_F4.1_T4.1 (ssRNA)
RNA: B18 RNA with C25G, G27A, U28C, A29U
B22: Ie_S4_P4E.1_K4.1_C4.1_H4.1_[+4TC]_A4.1_F4.1_T4.1 (ssRNA)
RNA: B18 RNA with C25G, G27A, A29C
B23: Ie_S4_P3E.2_K3.1_C3.2_H3.1_[+4CCC]_A3.1_F3.1_T3.2 (ssRNA)
RNA: UUUGACAACUGAUCGUUCUUUCUCUUGUACCCUAUAUAUUCUUUCUCGAUCAGUUGUCUUU
B24: Ie_S4_P3E.2_K3.1_C3.2_H3.1_[+4CTC]_A3.1_F3.1_T3.2 (ssRNA)
RNA: B23 RNA with C31U
B25: Ie_S4_P3E.2_K3.1_C3.2_H3.1_[+4CCT]_A3.1_F3.1_T3.2 (ssRNA)
RNA: B23 RNA with C32U
B26: Ie_S4_P3E.2_K3.1_C3.2_H3.1_A3.1_F3.1_[+8CCCTT]_T3.2 (ssRNA)
RNA: UUUGACAACUGAUCGUUCUUUCUCUUGUAUAUACCCUUUAUUCUUUCUCGAUCAGUUGUCUUU
B27: Ie_S4_P4E.1_K4.1_C4.1_H4.1_[+1CCCT]_A4.1_F4.1_T4.1 (ssRNA)
RNA: UUUGACAACUGAUCGUUCUUUCUUCCCUGUAUAUUAUUCUUUCUCGAUCAGUUGUCUUU
B28: Ie_S4_P4E.1_K4.1_C4.1_H4.1_[+2TTCC]_A4.1_F4.1_T4.1 (ssRNA)
RNA: B27 RNA with C25G, C26U, C27U, U28C, G29C
B29: Ie_S4_P4E.1_K4.1_C4.1_H4.1_[+2CCTC]_A4.1_F4.1_T4.1 (ssRNA)
RNA: B27 RNA with C25G, G29C
B30: Ie_S4_P4E.1_K4.1_C4.1_H4.1_[+3CCTC]_A4.1_F4.1_T4.1 (ssRNA)
RNA: B27 RNA with C25G, C26U, U28C, G29U, U30C
B31: Ie_S4_P4E.1_K4.1_C4.1_H4.1_[+4TCTC]_A4.1_F4.1_T4.1 (ssRNA)
RNA: B27 RNA with C25G, C26U, C27A, G29C, A31C
B32: Ib_S2_P3E.1_K3.1_C3.1_H3.1_[G2A]_A3.1_[T5C]_F3.1_T3.1 (ssRNA)
RNA: UUUGAUUAAUAUGAUAUCGUUCUUUCUUAUACAUAUUCUUUCUCGAUAUCAUAUUAAUCUUU
B33: Ib_S2_P3E.1_K3.1_C3.1_H3.1_[G2C]_A3.1_[A6C]_F3.1_T3.1 (ssRNA)
RNA: B32 RNA with A29C, C32U, A33C
B34: Ib_S2_P3E.1_K3.1_C3.1_H3.1_[G2A]_A3.1_[T5A]_F3.1_T3.1 (ssRNA)
RNA: B32 RNA with C32A
B35: Ib_S2_P3E.1_K3.1_C3.1_H3.1_[G2T]_A3.1_[A6G]_F3.1_T3.1 (ssRNA)
RNA: B32 RNA with A29U, C32U, A33G
B36: Ib_S2_P3E.1_K3.1_C3.1_H3.1_[G2C]_A3.1_[A6G]_F3.1_T3.1 (ssRNA)
RNA: B32 RNA with A29C, C32U, A33G
B37: Ie_S4_P4E.1_K4.1_C4.1_H4.1_[+1CTCTC]_A4.1_F4.1_T4.1 (ssRNA)
RNA: UUUGACAACUGAUCGUUCUUUCUUCUCUCGUAUAUUAUUCUUUCUCGAUCAGUUGUCUUU
B38: Ie_S4_P4E.1_K4.1_C4.1_H4.1_[+4CTCTC]_A4.1_F4.1_T4.1 (ssRNA)
RNA: B37 RNA with C25G, C27A, U28C, C29U, G30C, A32C
B39: Ie_S4_P4E.1_K4.1_C4.1_H4.1_[+2CCTCT]_A4.1_F4.1_T4.1 (ssRNA)
RNA: B37 RNA with C25G, U26C, G30U
B40: Ie_S4_P4E.1_K4.1_C4.1_H4.1_[+3TTCCT]_A4.1_F4.1_T4.1 (ssRNA)
RNA: B37 RNA with C25G, C27U, G30C
B41: Ie_S4_P4E.1_K4.1_C4.1_H4.1_[+3CCCTT]_A4.1_F4.1_T4.1 (ssRNA)
RNA: B37 RNA with C25G, U28C, G30U
B42: Ie_S4_P3E.2_K3.1_C3.2_H3.1_[+3TCTCT]_A3.1_F3.1_T3.2 (ssRNA)
RNA: UUUGACAACUGAUCGUUCUUUCUCUUGUUCUCUAUAUAUAUUCUUUCUCGAUCAGUUGUCUUU
B43: Ie_S4_P3E.2_K3.1_C3.2_H3.1_[+3CCTCT]_A3.1_F3.1_T3.2 (ssRNA)
RNA: B42 RNA with U29C
B44: Ie_S4_P3E.2_K3.1_C3.2_H3.1_[+3TTCCT]_A3.1_F3.1_T3.2 (ssRNA)
RNA: B42 RNA with C30U, U31C
B45: Ie_S4_P4E.1_K4.1_C4.1_H4.1_[+2C]_A4.1_F4.1_T4.1 (ssRNA)
RNA: UUUGACAACUGAUCGUUCUUUCUUGCUAUAUUAUUCUUUCUCGAUCAGUUGUCUUU
B46: Ie_S4_P4E.1_K4.1_C4.1_H4.1_[+4T]_A4.1_F4.1_T4.1 (ssRNA)
RNA: B45 RNA with C26U, U27A, A28U
B47: Ie_S4_P3E.2_K3.1_C3.2_H3.1_A3.1_[+6C]_F3.1_T3.2 (ssRNA)
RNA: UUUGACAACUGAUCGUUCUUUCUCUUGUAUACUAUAUUCUUUCUCGAUCAGUUGUCUUU
B48: Ie_S4_P3E.2_K3.1_C3.2_H3.1_A3.1_F3.1_[+7C]_T3.2 (ssRNA)
RNA: B47 RNA with C32U, U33C
B49: Ie_S4_P4E.1_K4.1_C4.1_H4.1_[+1CTCT]_A4.1_F4.1_T4.1 (ssRNA)
RNA: B27 RNA with C26U
B50: Ie_S4_P3E.2_K3.1_C3.2_H3.1_A3.1_F3.1_[+8T]_T3.2 (ssRNA)
RNA: B47 RNA with C32U, U33A, A34U

Target: T1, PUF4 RNA-binding domain
Experiment: Mg; RNA-MaP; 20 mM Na-HEPES pH 7.4, 30 mM KOAc, 0.75 mM MgCl2, 0.1% Tween-20, 5% glycerol, 0.1 mg/mL BSA, 2 mM DTT; 25 C; 0.0125-409.6 nM protein
Conditions: tags: N-His6-TEV cleaved; C-SNAP kept, Cy3B-labelled; label: tethered on chip by stalled RNA polymerase

| Binder | Kd [nM] |
| --- | --- |
| B1 | 8.22 |
| B2 | 2.21 |
| B3 | 12.7 |
| B4 | 8.71 |
| B5 | 6.36 |
| B6 | 1.72 |
| B7 | 15 |
| B8 | 7.21 |
| B9 | 0.249 |
| B10 | 1.44 |
| B11 | 7.68 |
| B12 | 108 |
| B13 | 3.27 |
| B14 | 23.4 |
| B15 | 32.7 |
| B16 | 2.11 |
| B17 | 2.91 |
| B18 | 0.223 |
| B19 | 31.2 |
| B20 | 16.8 |
| B21 | 4.23 |
| B22 | 6.67 |
| B23 | 1.57 |
| B24 | 1.08 |
| B25 | 1.24 |

| Binder | Kd [nM] |
| --- | --- |
| B26 | 6.29 |
| B27 | 0.155 |
| B28 | 23.9 |
| B29 | 105 |
| B30 | 66.1 |
| B31 | 4.78 |
| B32 | 467 |
| B33 | > 2300 |
| B34 | 1820 |
| B35 | 189 |
| B36 | 87.4 |
| B37 | 5.7 |
| B38 | 6.67 |
| B39 | 118 |
| B40 | 22.7 |
| B41 | 51.6 |
| B42 | 11.8 |
| B43 | 21.3 |
| B44 | 19.9 |
| B45 | 148 |
| B46 | 4.34 |
| B47 | 0.411 |
| B48 | 2.77 |
| B49 | 0.208 |
| B50 | 1.33 |
